In assay [1] the target is Bacillus thuringiensis tRNA^His guanylyltransferase (Thg1)-like protein (TLP) (Bacillus thuringiensis). Kind of assay: crystal structure; BtTLP co-crystallised with ~1 mM ATP; orthorhombic crystals, space group C222_(1), 2.35 Å; four molecules per asymmetric unit (two dimers).
Assay [2] shares this target. Briefly: crystal structure; BtTLP co-crystallised with ~2 mM GTP; tetragonal crystals, space group P4_(1), 2.96 Å; four monomers per asymmetric unit.

Broadly, the stoichiometry N is a count of units in the complex or per binding partner. For the substance “Bacillus thuringiensis tRNA^His guanylyltransferase (Thg1)-like protein (TLP) (enzyme)”, the stoichiometry N in assay [1] and in assay [2] was 4 in each case.

The values are drawn from publication PMC3701042, “Structural Studies of a Bacterial tRNA^HIS Guanylyltransferase (Thg1)-Like Protein, with Nucleotide in the Activation and Nucleotidyl Transfer Sites” (PLoS ONE, 2013).
